Source: patent US20180022809A1 (VENTANA MEDICAL SYSTEMS, published 2018)
No end group written: not given here.

Assays:
[1] = molecular target: human programmed death-ligand 1 (PD-L1) (human) (UniProt Q9NZQ7); experiment: IHC on FFPE tissue sections of 119 NSCLC cases
[2] = molecular target: T1, peptide fragment of the cytoplasmic region (amino acid residues 279-290) of human PD-L1 (human, not fully specified); experiment: ELISA screen on the PD-L1 peptide antigen
T1 construct: For immunization, Cys-Gly was appended to the N-terminus and the peptide was conjugated to KLH; also called PD-L1 antigen
T1 peptide: SKKQSDTHLEET

Chain of human programmed death-ligand 1 (PD-L1) (human) (Q9NZQ7 19-290 limits assumed): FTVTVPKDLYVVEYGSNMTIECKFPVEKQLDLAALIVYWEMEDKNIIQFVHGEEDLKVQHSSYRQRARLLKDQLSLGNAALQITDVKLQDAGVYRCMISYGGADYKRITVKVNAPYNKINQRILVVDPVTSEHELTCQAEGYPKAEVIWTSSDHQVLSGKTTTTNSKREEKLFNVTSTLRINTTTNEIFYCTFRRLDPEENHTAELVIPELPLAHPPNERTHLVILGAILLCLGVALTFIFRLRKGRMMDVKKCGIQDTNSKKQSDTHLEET

Row | binding result [2] | Molecule | mean H score (extent of membrane immunoreactivity) (H score (range 0 to 300)) [1]
1 | – | anti-PD-L1 antibody E1L3N (Cell Signaling Technology) | 56
2 | binds | anti-PD-L1 antibody SP142 (antibody, V domains shown, the constant regions are not; also called rabbit anti-human PD-L1 (SP142) monoclonal antibody) VH: QSLEESGGRLVKPDETLTITCTVSGIDLSSNGLTWVRQAPGEGLEWIGTINKDASAYYASWAKGRLTISKPSSTKVDLKITSPTTEDTATYFCGRIAFKTGTSIWGPGTLVTVSS VL: AIVMTQTPSPVSAAVGGTVTINCQASESVYSNNYLSWFQQKPGQPPKLLIYLASTLASGVPSRFKGSGSGTQFTLTISGVQCDDAATYYCIGGKSSSTDGNAFGGGTEVVVR | –
